Experimental data from paper PMC3660353.
Values joined by “and” are separate entries in the source; they are usually repeats but may differ in a detail not shown here. Equal entries are not always repeated.

T1: recombinant, full-length human claudin-1 (human), O95832
T1 chain: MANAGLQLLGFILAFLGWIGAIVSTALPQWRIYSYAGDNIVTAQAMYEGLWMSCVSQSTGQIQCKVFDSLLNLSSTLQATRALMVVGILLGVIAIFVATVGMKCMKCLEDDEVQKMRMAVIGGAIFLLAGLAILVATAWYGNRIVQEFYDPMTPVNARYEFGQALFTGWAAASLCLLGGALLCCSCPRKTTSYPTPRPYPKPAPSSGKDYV


Assays:
[1] = target: recombinant, full-length human CD81 with six putative palmitoylation sites mutated to alanine (human) (UniProt P60033); assay: dynamic light scattering; single purified proteins in detergent micelles (claudin-1 in foscholine-10, CD81 in βOG), with and without CHEMS, 20°C; oligomeric state predicted from the hydrodynamic radius
[2] = target: recombinant, full-length human claudin-1 (human) (UniProt O95832); assay: dynamic light scattering; purified proteins in detergent micelles (claudin-1 in foscholine-10, CD81 and CD82 in βOG) mixed at a 1:2 molar ratio, with and without CHEMS, 20 mM MOPS pH 8, 1% βOG, 20°C, followed for 23-36 h
[3] = target: T1, recombinant, full-length human …; assay: AUC; claudin-1 in βOG micelles; sedimentation velocity, continuous c(s) distribution model (SEDFIT); details: remark: other sources report otherwise
[4] = target: T1, recombinant, full-length human …; assay: reducing SDS-PAGE (Coomassie); proteins solubilised in βOG and eluted from a nickel affinity column; details: remark: other sources report otherwise
[5] = target: T1, recombinant, full-length human …; assay: dynamic light scattering; single purified proteins in detergent micelles (claudin-1 in foscholine-10, CD81 in βOG), with and without CHEMS, 20°C; oligomeric state predicted from the hydrodynamic radius; details: remark: other sources report otherwise
[6] = target: T1, recombinant, full-length human …; assay: non-reducing SDS-PAGE with immunoblot; P. pastoris total membranes, 1 µg protein per well, sample buffer without β-mercaptoethanol, 12% gel, blot with anti-His6; details: remark: other sources report otherwise

| stoichiometry N [3] | stoichiometry N [4] | stoichiometry N [5] | stoichiometry N [6] | Molecule | stoichiometry N [1] | stoichiometry N [2] |
| --- | --- | --- | --- | --- | --- | --- |
| – | – | – | – | recombinant, full-length human CD81 with six putative palmitoylation sites mutated to alanine (from UniProt P60033 1-236) (natural protein) | 2 | 2 |
| 2 | 2 | 2 | 2 and 3 | recombinant, full-length human claudin-1, O95832 1-211 (natural protein) MANAGLQLLGFILAFLGWIGAIVSTALPQWRIYSYAGDNIVTAQAMYEGLWMSCVSQSTGQIQCKVFDSLLNLSSTLQATRALMVVGILLGVIAIFVATVGMKCMKCLEDDEVQKMRMAVIGGAIFLLAGLAILVATAWYGNRIVQEFYDPMTPVNARYEFGQALFTGWAAASLCLLGGALLCCSCPRKTTSYPTPRPYPKPAPSSGKDYV | – | – |
